For this test, the target named is melanocortin-1 receptor (MC-1r) on murine melanocytes (line S91 Cloudman) (murine, UniProt Q01727 1-315). Put plainly: cell-based or functional assay.

From US7268108 (INSTITUT EUROPEAN DE BIOLOGIE CELLULAIRE, dated 2007) come the findings set out here.

[ ]: non-standard residue; d: D form. The star is where a group is joined. dPhe(4-NO2) = N[C@H](Cc1ccc([N+](=O)[O-])cc1)C(=O)O; 2Nal = N[C@@H](Cc1ccc2ccccc2c1)C(=O)O; Benzenesulfonyl = O=S(=O)(c1ccccc1)*; d2Thi = N[C@H](Cc1cccs1)C(=O)O; PyrProp = pyridinepropionyl; Nle = CCCC[C@H](N)C(=O)O

Sequence of melanocortin-1 receptor (MC-1r) on murine melanocytes (line S91 Cloudman) (Q01727 whole entry): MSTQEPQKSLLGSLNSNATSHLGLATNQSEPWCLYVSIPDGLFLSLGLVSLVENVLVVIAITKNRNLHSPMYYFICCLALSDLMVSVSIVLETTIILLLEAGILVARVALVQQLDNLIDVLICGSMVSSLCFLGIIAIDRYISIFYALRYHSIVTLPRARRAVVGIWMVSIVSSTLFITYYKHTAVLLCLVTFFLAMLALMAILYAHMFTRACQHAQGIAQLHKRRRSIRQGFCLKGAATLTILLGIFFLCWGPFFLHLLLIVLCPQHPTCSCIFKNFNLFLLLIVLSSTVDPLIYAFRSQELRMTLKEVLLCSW

B1: Compound No. 7 in the Table, BzlSO2-Nle-Ala-His-DpNO2Phe-Lys-Trp-NH2 (peptide)
peptide: Benzenesulfonyl-[Nle]AH[dPhe(4-NO2)]KW-NH2
SMILES: CCCC[C@H](NS(=O)(=O)c1ccccc1)C(=O)N[C@@H](C)C(=O)N[C@@H](Cc1c[nH]cn1)C(=O)N[C@H](Cc1ccc([N+](=O)[O-])cc1)C(=O)N[C@@H](CCCCN)C(=O)N[C@@H](Cc1c[nH]c2ccccc12)C(N)=O
B1: the “cAMP production (as % of α-MSH)” value is 100 % of α-MSH.

For the molecule PyrProp-[Nle]AH[dPhe(4-NO2)]KW-NH2 [Compound No. 10 in the Table, PyrProp-Nle-Ala-His-DpNO2Phe-Lys-Trp-NH2], the “cAMP production (as % of α-MSH)” value is 115 % of α-MSH.

Turning to Ac-SYSMEHFRWGKPV-NH2, the “cAMP production (as % of α-MSH)” value was 100 % of α-MSH.

B2: Compound No. 12 in the Table, Ac-Nle-Ala-His-L2,Nap-Lys-Trp-NH2 (peptide)
peptide: Ac-[Nle]AH[2Nal]KW-NH2
SMILES: CCCC[C@H](NC(C)=O)C(=O)N[C@@H](C)C(=O)N[C@@H](Cc1c[nH]cn1)C(=O)N[C@@H](Cc1ccc2ccccc2c1)C(=O)N[C@@H](CCCCN)C(=O)N[C@@H](Cc1c[nH]c2ccccc12)C(N)=O
B2: the “cAMP production (as % of α-MSH)” value is 50 % of α-MSH.

B3: Compound No. 8 in the Table, BzlSO2-Nle-Ala-His-DThi-Lys-Trp-NH2 (peptide)
peptide: Benzenesulfonyl-[Nle]AH[d2Thi]KW-NH2
SMILES: CCCC[C@H](NS(=O)(=O)c1ccccc1)C(=O)N[C@@H](C)C(=O)N[C@@H](Cc1c[nH]cn1)C(=O)N[C@H](Cc1cccs1)C(=O)N[C@@H](CCCCN)C(=O)N[C@@H](Cc1c[nH]c2ccccc12)C(N)=O
For B3, the “cAMP production (as % of α-MSH)” value is 65 % of α-MSH.

B4: Compound No. 9 in the Table, Ac-Nle-Ala-His-DThi-Lys-Trp-NH2 (peptide)
peptide: Ac-[Nle]AH[d2Thi]KW-NH2
SMILES: CCCC[C@H](NC(C)=O)C(=O)N[C@@H](C)C(=O)N[C@@H](Cc1c[nH]cn1)C(=O)N[C@H](Cc1cccs1)C(=O)N[C@@H](CCCCN)C(=O)N[C@@H](Cc1c[nH]c2ccccc12)C(N)=O
Regarding B4, the “cAMP production (as % of α-MSH)” value was 75 % of α-MSH.
